# Legend:
# [1] = system: high cardiovascular risk patients with hypercholesterolemia; experiment: ODYSSEY COMBO I: lipid efficacy of alirocumab vs placebo, add-on to maximally tolerated statin, 52 weeks; assay type: in vivo, human
# Source text: Each of the COMBO studies was randomized, double-blinded, and placebo-controlled.
# The primary efficacy endpoint for each study was the difference between treatment arms in the percent change in LDL-C from baseline to Week 24.
# Apo, apolipoprotein; HDL-C, high-density lipoprotein cholesterol; ITT, intent-to-treat; LDL-C, low-density lipoprotein cholesterol; Lp(a), lipoprotein (a); TG, triglycerides.
# COMBO I was a Phase 3, randomized, double-blind, placebo-controlled, parallel-group, multicenter, 52-week study.
# After randomization, patients entered a double-blind treatment period of 52 weeks. […] Patients randomized to placebo received a 1 ml SC placebo injection from an identical auto-injector.
# To maintain blinding, the patient and investigator were not informed of the Week 8 LDL-C levels (or any lipid values after randomization); continuation or up-titration of dose occurred in an automated and blinded manner.
# Primary analyses of efficacy endpoints were conducted using an ITT approach (based on the ITT population defined above), including all lipid data, regardless of whether the patient was continuing therapy or not. This corresponds to ITT estimands, defined for primary and key secondary endpoints. In addition, analyses were also conducted using an on-treatment approach (based on the mITT population defined above), including lipid data collected during the efficacy treatment period. This corresponds to on-treatment estimands of key secondary endpoints.
# With regards to the primary efficacy analysis (ITT approach), the percent change in calculated LDL-C from baseline to Week 24 was analyzed using a mixed-effect model with repeated measures (MMRM) approach. All post-baseline data available from Week 4 to Week 52 analysis windows were used and missing data were accounted for by the MMRM.
# [2] = system: high cardiovascular risk patients with hypercholesterolemia; experiment: ODYSSEY LONG TERM: ophthalmologic sub-study; assay type: in vivo, human; conditions: including the ophthalmological sub-study
# Source text: Patients underwent ophthalmologic assessments by ophthalmologists/optometrists at the screening period. If the patients were deemed eligible for the main study trial and fulfilled the additional eligibility criteria for the sub-study, then the patients underwent ophthalmologic assessments every 6 months during the 18-month double-blind treatment period
# The primary endpoint was adverse events related to ophthalmologic abnormalities (using SMQ “optic nerve disorders”, “retinal disorders” and “corneal disorders”) over the study duration.
# [3] = system: high cardiovascular risk patients with hypercholesterolemia; conditions: in vivo
# Procedure: (§1) Safety was assessed through adverse event (AE) reporting (including adjudicated cardiovascular events), laboratory analyses, and vital signs measurement. Since the LDL-C-lowering effects of PCSK9 inhibition on top of a statin are unknown, a number of AEs were defined as being of special interest and were monitored, including alanine aminotransferase abnormalities, allergic events, hemolytic anemia, pregnancy, overdose with study drug, neurologic events, ophthalmic events, and local injection site reactions. AEs were determined to be of special interest based on review of previous clinical trials, correspondence with regulatory authorities and the Data Monitoring Committee, the use of a monoclonal antibody in this study, and the route of drug administration.
# (§2) AEs (including adjudicated cardiovascular events), laboratory parameters, and vital signs were reported descriptively, based on the safety population (all randomized patients who received at least 1 dose or partial dose of study treatment). The safety analysis focused on the treatment-emergent AE period defined as the time from the first double-blind dose to the last double-blind dose of the investigational product +70 days (10 weeks).
# (§3) The safety population included all randomized patients who received at least one dose or part of a dose of the double-blind IMP.
# (§4) Safety analyses were descriptive, performed on the safety population according to treatment actually received. For analysis of TEAE and PCSA, the safety analysis focused on the TEAE period defined as the time from the first dose of double-blind IMP up to 70 days after the last double-blind injection.
# [4] = system: high cardiovascular risk patients with hypercholesterolemia; experiment: ODYSSEY LONG TERM: lipid efficacy of alirocumab 150 mg Q2W vs placebo; assay type: in vivo, human; conditions: intention-to-treat, Week 78 (final analysis)
# [5] = system: high cardiovascular risk patients with hypercholesterolemia; experiment: ODYSSEY COMBO I: safety (TEAEs, adjudicated CV events, laboratory PCSA, low LDL-C)
# Procedure: as §1, §2, §3, §4
# [6] = Week 24, 'Combo I: Overall Results' paragraph
# [7] = alirocumab patients with LDL-C <25 mg/dL
substance,measurement,setting,value
"Alirocumab: human anti-PCSK9 antibody; HCVR SEQ ID NO:1, LCVR SEQ ID NO:6; CDRs SEQ ID NOs 2/3/4/7/8/10","Calculated LDL-C, LS mean (SE) percent change from baseline","[1]; On-treatment, Week 24",−50.7 (1.9) %
same,"Non-HDL-C percent change, LS mean difference vs placebo","[1]; On-treatment, Week 24",placebo of −40.4%
same,Percent LDL-C reduction vs placebo within demographic and patient subgroups,"[1]; Week 24, FIG. 5",seen at every level within each subgroup
same,Absolute mean decrease from baseline in LDL-C,[1]; [6],-90.8 mg/dL
same,Patients who achieved LDL-C <100 mg/dL,[1]; [6],57%
same,Change in triglyceride levels,[1]; baseline to Week 24,No significant change
same,HDL-C percent change from baseline,[1]; baseline to Week 24,3.5 (1.1) %
same,Additional mean LDL-C reduction at week 24 compared with week 12,[1]; patients with dose increase to 150 mg Q2W at week 12,22.8%
same,TEAEs related to ophthalmological events,[2],no particular signal was detected
same,SOC infections and infestations,[3],37.2%
same,Urinary tract infection (TEAE preferred term),[3],13 (6.3) No. (%) of patients
same,Percent decrease in LDL cholesterol,[4],52%
same,Ischemic events (within SOC Cardiac disorders),[5]; TEAE period,9 events
same,SAEs reported,[5]; TEAE period,12.6%
same,SOC Cardiac disorders,[5]; TEAE period,8.2%
same,SOC Metabolism and nutrition disorder,[5]; TEAE period,10.1%
same,SOC eye disorders,[5]; TEAE period,4.3%
same,Arthralgia rate,[5]; alirocumab group as a whole,3.9%
same,Invertebral disc protusion rate,[5]; alirocumab group as a whole,1.0%
same,Myalgia rate,[5]; alirocumab group as a whole,3.4%
same,Osteoarthritis rate,[5]; alirocumab group as a whole,3.9%
same,Arthralgia rate,[5]; [7],5.1%
same,Invertebral disc protusion rate,[5]; [7],5.1%
same,Myalgia rate,[5]; [7],7.7%
same,Osteoarthritis rate,[5]; [7],7.7%
same,Patients with cardiovascular events that were positively adjudicated,[5]; as stated in text b249 (5 patients),2.4%
same,PCSA: decrease of hemoglobin from baseline ≧20 g/L,[5]; in vivo,6.3%
same,PCSA: new cases of erythrocytes values ≧6 Tera/L,[5]; in vivo,2.5%
same,Patients with impaired glucose control at baseline classified as diabetic in the TEAE period,[5]; in vivo,7.4%
same,Patients with two consecutive calculated LDL-C values <25 mg/dL,[5]; in vivo,19.5%
same,Safety in patients with two consecutive calculated LDL-C <25 mg/dL,[5]; in vivo,No particular safety concern
same,"Asthma (general allergic reactions), cases",[5]; including 2 serious cases,5 (2.4%) No. (%)
same,Deaths during treatment period,[5]; myocardial infarction and pulmonary embolism,1.0%
same,Tolerability,[5]; overall results,generally well tolerated
same,"Time to the first calculated LDL-C value <15 mg/dL, mean (SD)",[5]; safety population,12.51 (6.83) weeks
same,"Time to the first calculated LDL-C value <15 mg/dL, median",[5]; safety population,13.57 weeks
same,"Time to the first calculated LDL-C value <25 mg/dL, mean (SD)",[5]; safety population,11.48 (9.72) weeks
same,"Time to the first calculated LDL-C value <25 mg/dL, median",[5]; safety population,8.00 weeks
same,Any patients with treatment emergent cardiovascular events confirmed by adjudication,"[5]; safety population, to week 52",−6 (2.9) No. (%) of patients
same,Arthralgia (TEAE preferred term),"[5]; safety population, to week 52",8 (3.9) No. (%) of patients
same,"Congestive heart failure requiring hospitalization, adjudicated","[5]; safety population, to week 52",0 No. (%) of patients
same,"Coronary heart disease death (including undetermined cause), adjudicated","[5]; safety population, to week 52",1 (0.5) No. (%) of patients
same,Dizziness (TEAE preferred term),"[5]; safety population, to week 52",11 (5.3) No. (%) of patients
same,"Fatal and non-fatal ischemic stroke (including stroke not otherwise specified), adjudicated","[5]; safety population, to week 52",−2 (1.0) No. (%) of patients
same,Injection site reaction (TEAE preferred term),"[5]; safety population, to week 52",11 (5.3) No. (%) of patients
same,"Ischemia driven coronary revascularization procedure, adjudicated","[5]; safety population, to week 52",3 (1.4) No. (%) of patients
same,Local injection site reactions (AE of special interest),"[5]; safety population, to week 52",11 (5.3) No. (%) of patients
same,Nasopharyngitis (TEAE preferred term),"[5]; safety population, to week 52",15 (7.2) No. (%) of patients
same,Neurocognitive disorders (AE of special interest),"[5]; safety population, to week 52",0 (0) No. (%) of patients
same,Neurological events (AE of special interest),"[5]; safety population, to week 52",5 (2.4) No. (%) of patients
same,Non-cardiac chest pain (TEAE preferred term),"[5]; safety population, to week 52",2 (1.0) No. (%) of patients
same,"Non-fatal myocardial infarction, adjudicated","[5]; safety population, to week 52",1 (0.5) No. (%) of patients
same,Potential general allergic reaction events (AE of special interest),"[5]; safety population, to week 52",18 (8.7) No. (%) of patients
same,Sinusitis (TEAE preferred term),"[5]; safety population, to week 52",11 (5.3) No. (%) of patients
same,TEAE leading to death,"[5]; safety population, to week 52",2 (1.0) No. (%) of patients
same,TEAEs,"[5]; safety population, to week 52",157 (75.8) No. (%) of patients
same,TEAEs leading to discontinuation,"[5]; safety population, to week 52",13 (6.3) No. (%) of patients
same,Treatment-emergent SAEs,"[5]; safety population, to week 52",26 (12.6) No. (%) of patients
same,Local injection site reactions (AE of special interest),"[5]; safety population, to week 52, listed as alirocumab",11 (5.3%) No. (%) of patients

# Reference: US20160137746A1, “METHODS FOR TREATING HIGH CARDIOVASCULAR RISK PATIENTS WITH HYPERCHOLESTEROLEMIA” (Sanofi Biotechnology, priority 2014, published 2016)
